For experiment [1], the target named is HBV recombinant antigen GST-pre-S1(1-56) (hepatitis B virus). The experiment in a line: competitive ELISA, GST-pre-S1(1-56) on plate, COS7 supernatant. For orientation: An ELISA detects its analyte on a solid surface through an enzyme-linked reagent.
Experiment [2] has the same target. Briefly: competitive ELISA, pre-S1 antigen in solution and on plate.
For experiment [3] the target is unchanged. The experiment in a line: competitive ELISA as in Test Example 2, purified antibody from CHO cells.
For experiment [4] the target is unchanged. Briefly: competitive ELISA as in Test Example 2.

This note sets out measurements from patent US20070021595A1.

B1: chimeric antibody chKR127 (wild type) (antibody, V domains shown)
VH: QVQLVQSGAEVKAPGASVKVSCKASGYTFTSAWMNWVRQAPGQGLEWMGRIYPSGGSTSYAQKFQGRVTMTADKSTSTVYMELSSLRSEDTAVYYCAREYRVARWGQGTLVTVSA
VL: DIVMTQTPLSLSVTPGQPASISCKSSQSLLYSNGKTYLNWLLQKPGQPPQRLIYLVSNRDSGVPDRFSGSGSGTDFTLKISRVEAEDVGVYYCVQGTHFPQTFGGGTKVEIK
Regarding B1, the Kd – broadly, a measure of binding affinity in units of concentration – was found to be 11 nM in experiment [1] and 8.2 nM in experiment [2].

B2: humanized antibody HuKR127 (antibody, V domains shown)
VH: QVQLVQSGAEVKAPGASVKVSCKASGYTFTSAWMNWVRQAPGQGLEWMGRIYPSGGSTSYAQKFQGRVTMTADKSTSTVYMELSSLRSEDTAVYYCAREYRVARWGQGTLVTVSA
VL: DIVMTQTPLSLSVTPGQPASISCKSSQSLLYSNGKTYLNWLLQKPGQPPQRLIYLVSNRDSGVPDRFSGSGSGTDFTLKISRVEAEDVGVYYCVQGTHFPQTFGGGTKVEIK
In the case of B2, in experiment [3], the Kd amounted to 0.16 nM and the fold higher affinity than the control group was found to be 50 fold.

B3: humanized antibody of humanized heavy chain HuKR127HC (HuKR127VH-VII) and humanized antibody HZKR127I light chain (antibody, part only; not given: Light chain, V domains shown, part only)
VH: QVQLVQSGAEVKAPGASVKVSCKASGYTFTSAWMNWVRQAPGQGLEWMGRIYPSGGSTSYAQKFQGRVTMTADKSTSTVYMELSSLRSEDTAVYYCAREYRVARWGQGTLVTVSA
With B3, in experiment [4], the Kd was 0.15 nM and the fold higher affinity than HZKR127I came out at 50 fold.
